{"source": "paper doi:10.1101/2022.08.25.505150", "about": "(bioRxiv, 2022)", "key": {"[1]": {"molecular_target": "6His-PilC (Streptococcus sanguinis 2908)", "test": "SEC-MALS"}, "[2]": {"molecular_target": "6His-PilC (Streptococcus sanguinis 2908)", "test": "ITC"}, "SEC-MALS": {"molecular_target": "the molecule itself", "test": "SEC-MALS"}}, "data": [{"molecule": "6His-PilA (from UniProt A0A0B7GNW3 33-164) (domain or fragment)", "values": [{"measurement": "stoichiometry N", "setting": "[1]", "result": 1}, {"measurement": "Kd", "setting": "[2]", "result": 23.8, "unit": "nM"}]}, {"molecule": "PilA_(T95A) (from UniProt A0A0B7GNW3 33-164) (domain or fragment)", "values": [{"measurement": "% of the wild-type binding (KD ratio to the WT)", "setting": "[2]", "result": 38.3, "unit": "%"}]}, {"molecule": "6His-PilA (domain or fragment, Streptococcus sanguinis 2908, UniProt A0A0B7GNW3 33-164, looked up) DTGQSQTQRMYNYLKAKYTATSGTQLAWGAYLDPVDGNPSSVYAEFDERAHNVDPSTEPIKSTHTFKDGSVAEIEMNGQLVDGLTGPENYNITIKSKSKLAGSNDYYEHIVTFNFDTKGIRSEEGHLRSAQK", "values": [{"measurement": "stoichiometry N", "setting": "SEC-MALS", "result": 2}]}]}
